Results from article PMC5404317.

B1: PINK1-V5 WT (V5-6xHis-tagged PINK1 wild type) [human] / TOM40 [human (endogenous in HeLa)] (parent)
chain 1: MAVRQALGRGLQLGRALLLRFTGKPGRAYGLGRPGPAAGCVRGERPGWAAGPGAEPRRVGLGLPNRLRFFRQSVAGLAARLQRQFVVRAWGCAGPCGRAVFLAFGLGLGLIEEKQAESRRAVSACQEIQAIFTQKSKPGPDPLDTRRLQGFRLEEYLIGQSIGKGCSAAVYEATMPTLPQNLEVTKSTGLLPGRGPGTSAPGEGQERAPGAPAFPLAIKMMWNISAGSSSEAILNTMSQELVPASRVALAGEYGAVTYRKSKRGPKQLAPHPNIIRVLRAFTSSVPLLPGALVDYPDVLPSRLHPEGLGHGRTLFLVMKNYPCTLRQYLCVNTPSPRLAAMMLLQLLEGVDHLVQQGIAHRDLKSDNILVELDPDGCPWLVIADFGCCLADESIGLQLPFSSWYVDRGGNGCLMAPEVSTARPGPRAVIDYSKADAWAVGAIAYEIFGLVNPFYGQGKAHLESRSYQEAQLPALPESVPPDVRQLVRALLQREASKRPSARVAANVLHLSLWGEHILALKNLKLDKMVGWLLQQSAATLLANRLTEKCCVETKMKMLFLANLECETLCQAALLLCSWRAAL
chain 2: MGNVLAASSPPAGPPPPPAPALVGLPPPPPSPPGFTLPPLGGSLGAGTSTSRSSERTPGAATASASGAAEDGACGCLPNPGTFEECHRKCKELFPIQMEGVKLTVNKGLSNHFQVNHTVALSTIGESNYHFGVTYVGTKQLSPTEAFPVLVGDMDNSGSLNAQVIHQLGPGLRSKMAIQTQQSKFVNWQVDGEYRGSDFTAAVTLGNPDVLVGSGILVAHYLQSITPCLALGGELVYHRRPGEEGTVMSLAGKYTLNNWLATVTLGQAGMHATYYHKASDQLQVGVEFEASTRMQDTSVSFGYQLDLPKANLLFKGSVDSNWIVGATLEKKLPPLPLTLALGAFLNHRKNKFQCGFGLTIG
B2: PINK1-V5 WT (V5-6xHis-tagged PINK1 wild type) [human] / CDC37 [human (endogenous in HeLa)] (parent)
chain 1: B1 chain 1
chain 2: MVDYSVWDHIEVSDDEDETHPNIDTASLFRWRHQARVERMEQFQKEKEELDRGCRECKRKVAECQRKLKELEVAEGGKAELERLQAEAQQLRKEERSWEQKLEEMRKKEKSMPWNVDTLSKDGFSKSMVNTKPEKTEEDSEEVREQKHKTFVEKYEKQIKHFGMLRRWDDSQKYLSDNVHLVCEETANYLVIWCIDLEVEEKCALMEQVAHQTIVMQFILELAKSLKVDPRACFRQFFTKIKTADRQYMEGFNDELEAFKERVRGRAKLRIEKAMKEYEEEERKKRLGPGGLDPVEVYESLPEELQKCFDVKDVQMLQDAISKMDPTDAKYHMQRCIDSGLWVPNSKASEAKEGEEAGPGDPLLEAVPKTGDEKDVSV

Columns and labels:
[1] = variants of: B1; experiment: co-immunoprecipitation (V5 agarose) with western blot quantification; settings: HeLa cells, read off a plot
[2] = variants of: B2; experiment: as above; settings: HeLa cells, read off a plot

Row | response (Tom40/V5 ratio) ([1]; 10 μM CCCP for 2 h) | response (Tom40/V5 ratio) ([1]; untreated (no CCCP)) | response (cdc37/V5 ratio) ([2]; 10 μM CCCP for 2 h) | response (cdc37/V5 ratio) ([2]; untreated (no CCCP)) | Variant
1 | 0.19 | 0.35 |  |  | chain 1 MAVRQALGRGLQLGRALLLRFTGKPGRAYGLGRPGPAAGCVRGERPGWAAGPGAEPRRVGLGLPNRLRFFRQSVAGLAARLQRQFVVRAWGCAGPCGRAVFLAFGLGLGLIEEKQAESRRAVSACQEIQAIFTQKSKPGPDPLDTRRLQGFRLEEYLIGQSIGKGCSAAVYEATMPTLPQNLEVTKSTGLLPGRGPGTSAPGEGQERAPGAPAFPLAIKMMWNISAGSSSEAILNTMSQELVPASRVALAGEYGAVTYRKSKRGPKQLAPHPNIIRVLRAFTSSVPLLPGALVDYPDVLPSRLHPEGLGHGRTLFLVMKNYPCTLRQYLCVNTPSPRLAAMMLLQLPEGVDHLVQQGIAHRDLKSDNILVELDPDGCPWLVIADFGCCLADESIGLQLPFSSWYVDRGGNGCLMAPEVSTARPGPRAVIDYSKADAWAVGAIAYEIFGLVNPFYGQGKAHLESRSYQEAQLPALPESVPPDVRQLVRALLQREASKRPSARVAANVLHLSLWGEHILALKNLKLDKMVGWLLQQSAATLLANRLTEKCCVETKMKMLFLANLECETLCQAALLLCSWRAAL [chain 1 L347P]
2 | 0.32 | 0.42 |  |  | chain 1 MAVRQALGRGLQLGRALLLRFTGKPGRAYGLGRPGPAAGCVRGERPGWAAGPGAEPRRVGLGLPNRLRFFRQSVAGLAARLQRQFVVRAWGCAGPCGRAVFLAFGLGLGLIEEKQAESRRAVSACQEIQAIFTQKSKPGPDPLDTRRLQGFRLEEYLIGQSIGKGCSAAVYEATMPTLPQNLEVTKSTGLLPGRGPGTSAPGEGQERAPGAPAFPLAIKMMWNISAGSSSEAILNTMSQELVPASRVALAGEYGAVTYRKSKRGPKQLAPHPNIIRVLRAFTSSVPLLPGALVDYPDVLPSRLHPEGLGHGRTLFLVMKNYPCTLRQYLCVNTPSPRLAAMMLLQLLEGVDHLVQQGIAHRDLKSDNNLVELDPDGCPWLVIADFGCCLADESIGLQLPFSSWYVDRGGNGCLMAPEVSTARPGPRAVIDYSKADAWAVGAIAYEIFGLVNPFYGQGKAHLESRSYQEAQLPALPESVPPDVRQLVRALLQREASKRPSARVAANVLHLSLWGEHILALKNLKLDKMVGWLLQQSAATLLANRLTEKCCVETKMKMLFLANLECETLCQAALLLCSWRAAL [chain 1 I368N]
3 |  |  | 0.55 | 0.58 | chain 1 MAVRQALGRGLQLGRALLLRFTGKPGRAYGLGRPGPAAGCVRGERPGWAAGPGAEPRRVGLGLPNRLRFFRQSVAGLAARLQRQFVVRAWGCAGPCGRAVFLAFGLGLGLIEEKQAESRRAVSACQEIQAIFTQKSKPGPDPLDTRRLQGFRLEEYLIGQSIGKGCSAAVYEATMPTLPQNLEVTKSTGLLPGRGPGTSAPGEGQERAPGAPAFPLAIKMMWNISAGSSSEAILNTMSQELVPASRVALAGEYGAVTYRKSKRGPKQLAPHPNIIRVLRAFTSSVPLLPGALVDYPDVLPSRLHPEGLGHGRTLFLVMKNYPCTLRQYLCVNTPSPRLAAMMLLQLPEGVDHLVQQGIAHRDLKSDNILVELDPDGCPWLVIADFGCCLADESIGLQLPFSSWYVDRGGNGCLMAPEVSTARPGPRAVIDYSKADAWAVGAIAYEIFGLVNPFYGQGKAHLESRSYQEAQLPALPESVPPDVRQLVRALLQREASKRPSARVAANVLHLSLWGEHILALKNLKLDKMVGWLLQQSAATLLANRLTEKCCVETKMKMLFLANLECETLCQAALLLCSWRAAL [chain 1 L347P]
4 |  |  | 0.66 | 0.61 | chain 1 MAVRQALGRGLQLGRALLLRFTGKPGRAYGLGRPGPAAGCVRGERPGWAAGPGAEPRRVGLGLPNRLRFFRQSVAGLAARLQRQFVVRAWGCAGPCGRAVFLAFGLGLGLIEEKQAESRRAVSACQEIQAIFTQKSKPGPDPLDTRRLQGFRLEEYLIGQSIGKGCSAAVYEATMPTLPQNLEVTKSTGLLPGRGPGTSAPGEGQERAPGAPAFPLAIKMMWNISAGSSSEAILNTMSQELVPASRVALAGEYGAVTYRKSKRGPKQLAPHPNIIRVLRAFTSSVPLLPGALVDYPDVLPSRLHPEGLGHGRTLFLVMKNYPCTLRQYLCVNTPSPRLAAMMLLQLLEGVDHLVQQGIAHRDLKSDNNLVELDPDGCPWLVIADFGCCLADESIGLQLPFSSWYVDRGGNGCLMAPEVSTARPGPRAVIDYSKADAWAVGAIAYEIFGLVNPFYGQGKAHLESRSYQEAQLPALPESVPPDVRQLVRALLQREASKRPSARVAANVLHLSLWGEHILALKNLKLDKMVGWLLQQSAATLLANRLTEKCCVETKMKMLFLANLECETLCQAALLLCSWRAAL [chain 1 I368N]
